Positions count from the first letter of the chain named. Names and notes keep the numbering of the source.
How the values were obtained:
[1] = target: the molecule itself; assay: crystal structure; orthorhombic crystal P212121 of AGT-Ma holo, hanging drop, 21 °C, PEG 6K 12%, 0.1 M MES pH 5.0; 1.7 Å; 2 molecules (1 dimer) per asymmetric unit
[2] = target: the molecule itself; assay: crystal structure; crystal P212121 of AGT-Ma-D183N holo, sitting drop, 21 °C, PEG 10K 17%, 0.1 M Bis-Tris pH 5.5, 0.1 M ammonium acetate; 1.8 Å; eight molecules (4 dimers) per asymmetric unit

B1: human alanine:glyoxylate aminotransferase major allele, wild type (enzyme)
chain: MASHKLLVTPPKALLKPLSIPNQLLLGPGPSNLPPRIMAAGGLQMIGSMSKDMYQIMDEIKEGIQYVFQTRNPLTLVISGSGHCALEAALVNVLEPGDSFLVGANGIWGQRAVDIGERIGARVHPMTKDPGGHYTLQEVEEGLAQHKPVLLFLTHGESSTGVLQPLDGFGELCHRYKCLLLVDSVASLGGTPLYMDRQGIDILYSGSQKALNAPPGTSLISFSDKAKKKMYSRKTKPFSFYLDIKWLANFWGCDDQPRMYHHTIPVISLYSLRESLALIAEQGLENSWRQHREAAAYLHGRLQALGLQLFVKDPALRLPTVTTVAVPAGYDWRDIVSYVIDHFDIEIMGGLGPSTGKVLRIGLLGCNATRENVDRVTEALRAALQHCPKKKL
modifications: Lys-209 in Schiff base linkage with PLP (internal aldimine); the linkage is photoreduced and broken in the late dataset
notes: alanine:glyoxylate aminotransferase (AGT), human, major allele; also called AGT-Ma; AGT
binding result [1]: binds

B2: human alanine:glyoxylate aminotransferase major allele, pathogenic variant D183N (enzyme)
chain: B1 chain with D183N
modifications: Lys-209 in Schiff base linkage with PLP (internal aldimine)
notes: alanine:glyoxylate aminotransferase (AGT), human, major allele, with the pathogenic (primary hyperoxaluria type I) mutation D183N; also called AGT-Ma D183N; AGT-D183N
binding result [2]: binds
